Test [1] has as its target T1, Biotinylated Human ACE2, His, Avitag protein (ACROBiosystems, AC2-H82E6) (human, UniProt Q9BYF1 18-740).
T1 construct: also called biotinylated ACE2; ACE2 protein; not shown: His tag and Avitag
Put plainly: SPR single cycle kinetics, ACE2 captured on CAP chip, peptide analyte; geometric mean; † high bulk contribution observed, treat with caution. How it is done: (§1) Binding of bicyclic peptides of the invention to Biotinylated Human ACE2, His, Avitag™ protein (ACROBiosystems, AC2-H82E6) was assessed by a SCK analysis. Experiments were performed at 25° C. on a Biacore T200 (Cytiva) running Biacore T200 Control software V2.0.1 and Evaluation software V3.0 (Cytiva). HBS-EP+ (Cytiva) was used as running buffer as well as for ligand and analyte dilutions. Biotin CAPture reagent was loaded onto a Series S Sensor CAP Chip (Cytiva) followed by loading of the ACE2 protein at a flow rate of 2 μl/min. The surface was then allowed to stabilise.
(§2) SCK data was obtained using bicyclic peptides of the invention as analytes injected at a flow rate of 30 μl/min to minimise any potential mass transfer effects. […] The association phases were monitored for 100 seconds for each of the four injections of increasing concentrations of analyte and a single dissociation phase was measured for 400 seconds following the last injection of analyte. Regeneration of the sensor chip surface was conducted using the CAP Chip standard regeneration buffer (Cytiva).
(§3) The signal from the reference channel Fc1 (no ACE2 captured) was subtracted from that of Fc2, Fc3 and Fc4 to correct for bulk effect and differences in non-specific binding to a reference surface. The signal from each blank run (Fc2-ACE2 captured but no antigen) was subtracted to correct for differences in surface stability. […]

In test [2] the target is T1, Biotinylated Human ACE2, His, Avitag …. Put plainly: SPR multiple cycle kinetics, biotinylated ACE2 captured on CAP chip, peptide as analyte. As for the experimental part: (§4) Binding of bicyclic peptides of the invention to Biotinylated Human ACE2, His, Avitag™ protein (ACROBiosystems, AC2-H82E6) was assessed by a MCK analysis. Experiments were performed at 25° C. on a Biacore T200 (Cytiva) running Biacore T200 Control software V2.0.1 and Evaluation software V3.0 (Cytiva). HBS-EP+(Cytiva) was used as running buffer as well as for ligand and analyte dilutions. Biotin CAPture reagent was loaded onto a Series S Sensor CAP Chip (Cytiva) followed by loading of biotinylated ACE2 at a flow rate of 2 μl/min. The surface was then allowed to stabilise.
MCK data was obtained using bicyclic peptides of the invention as analytes injected at a flow rate of 30 μl/min to minimise any potential mass transfer effects. […] For each concentration, the association phases were monitored for 250 seconds and the dissociation phase was measured for 450 seconds. […]
The signal from the reference channel Fc1 (no ACE2 captured) was subtracted from that of Fc2, Fc3 and Fc4 to correct for bulk effect and differences in non-specific binding to a reference surface. […] The double referenced sensorgrams were fitted with the Langmuir (1:1) binding model (Equation 1a above) where the closeness of fit of the data to the model is evaluated using the Chi square value which describes the deviation between the experimental and fitted (observed and expected) curves (Equation 1 b above).

Test [3] shares this target. Put plainly: SPR multiple cycle kinetics, ACE2 captured on CAP chip, peptide analyte 6.25-100 nM; geometric mean. How it is done: as §4
MCK data was obtained using bicyclic peptides of the invention as analytes injected at a flow rate of 30 μl/min to minimise any potential mass transfer effects. A five point, two-fold dilution range from 6.25 nM to 100 nM of analyte was prepared in running buffer. For each concentration, the association phases were monitored for 250 seconds and the dissociation phase was measured for 450 seconds. Regeneration of the sensor chip surface was conducted between cycles using the CAP Chip standard regeneration buffer (Cytiva). Multiple repeats of a blank and of Bicycle were programmed into the kinetic run in order to check the stability of both the surface and analyte over the kinetic cycles.
(§5) The signal from the reference channel Fc1 (no ACE2 captured) was subtracted from that of Fc2, Fc3 and Fc4 to correct for bulk effect and differences in non-specific binding to a reference surface. The signal from each blank run (Fc2-ACE2 captured but no antigen) was subtracted to correct for differences in surface stability. The double referenced sensorgrams were fitted with the Langmuir (1:1) binding model (Equation 1a above) where the closeness of fit of the data to the model is evaluated using the Chi square value which describes the deviation between the experimental and fitted (observed and expected) curves (Equation 1 b above).

Test [4] shares this target. Put plainly: SPR single cycle kinetics, ACE2 captured on CAP chip, peptide analyte; geometric mean; * Rmax set to 10. As for the experimental part: as §1, §2
as §5, with “below)” for “above)”, “1b below).” for “1 b above).”

For test [5] the target is unchanged. Put plainly: SPR single cycle kinetics, biotinylated ACE2 captured on CAP chip, peptide as analyte. How it is done:
as §1, §2, §3

The values below come from patent US20230183291A1 (Bicycle, published 2023).

Numbered stars: 1 amine (or outer) side, 2 acyl side, 3 side chain; on linkers, the order of the positions; unused ones are H or OH. Bridge positions count the residues as written; N and C are the ends. Square brackets hold non-standard residues; d marks the D form. Ends that are not written are not given here. TATA = O=C(CC[*:1])N1CN(C(=O)CC[*:2])CN(C(=O)CC[*:3])C1; Phe(4-Cl) = N[C@@H](Cc1ccc(Cl)cc1)C(=O)O; Hyp = O=C(O)[C@@H]1C[C@@H](O)CN1; hArg = N=C(N)NCCCC[C@H](N)C(=O)O; PYA = propargyl-acid

T1 sequence (Q9BYF1 18-740 limits assumed): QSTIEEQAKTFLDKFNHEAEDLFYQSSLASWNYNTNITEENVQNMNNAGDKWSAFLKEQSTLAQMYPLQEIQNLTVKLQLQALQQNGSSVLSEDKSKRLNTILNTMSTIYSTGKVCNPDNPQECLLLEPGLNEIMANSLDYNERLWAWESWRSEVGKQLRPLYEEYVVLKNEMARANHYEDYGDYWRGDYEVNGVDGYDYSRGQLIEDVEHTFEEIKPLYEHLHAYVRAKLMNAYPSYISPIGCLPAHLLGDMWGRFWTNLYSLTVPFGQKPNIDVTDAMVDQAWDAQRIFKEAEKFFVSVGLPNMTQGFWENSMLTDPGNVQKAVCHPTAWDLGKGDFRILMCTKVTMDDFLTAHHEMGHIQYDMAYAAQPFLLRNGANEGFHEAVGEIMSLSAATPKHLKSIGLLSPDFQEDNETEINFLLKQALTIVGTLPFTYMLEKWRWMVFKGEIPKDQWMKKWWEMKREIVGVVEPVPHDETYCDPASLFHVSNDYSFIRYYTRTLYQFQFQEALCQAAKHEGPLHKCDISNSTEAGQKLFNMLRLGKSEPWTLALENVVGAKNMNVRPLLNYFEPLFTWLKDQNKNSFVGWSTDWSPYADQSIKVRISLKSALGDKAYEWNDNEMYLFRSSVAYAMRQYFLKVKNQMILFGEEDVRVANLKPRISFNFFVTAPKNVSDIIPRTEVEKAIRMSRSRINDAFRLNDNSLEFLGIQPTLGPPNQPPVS

B1: BCY17340 (peptide)
peptide: ACNAVLCSWARANS[Phe(4-Cl)]CA
modifications: linker 2-7-16 via TATA
notes: bicyclic peptide, TATA scaffold
B1 gave a Kd in test [1] of 16.9 nM.

B2: BCY19024 (peptide)
peptide: Ac-CNAVLCSWA[hArg][Hyp]NSFC
modifications: linker 1-6-15 via TATA
notes: as for B1
For the molecule B2, the binding result in test [2] is on record as “no binding”.

B3: BCY17344 (peptide)
peptide: ACNAVLCSWARANSFCAK(PYA)
modifications: linker 2-7-16 via TATA
notes: as for B1
In the case of B3, the Kd in test [1] was determined as 3.2 nM.

B4: BCY18549 (peptide)
peptide: Ac-CNTVLCGWA[hArg]ANSLCAK(PYA)
modifications: linker 1-6-15 via TATA
notes: as for B1
In the case of B4, the dissociation constant (Kd) in test [3] came out at 42.9 nM; in test [4], 63.9 nM.

B5: BCY18551 (peptide)
peptide: Ac-CNTVLCGWA[hArg]ANSLCK(PYA)
modifications: linker 1-6-15 via TATA
notes: as for B1
As to B5, the equilibrium dissociation constant (Kd) in test [3] amounted to 19.5 nM; in test [4], 15.4 nM.

B6: BCY18259 (peptide)
peptide: Ac-CNAVLCSWA[hArg]ANSFC
modifications: linker 1-6-15 via TATA
notes: as for B1
Consider B6, for which the results for the Kd in test [3] and in test [4] were 13 nM and 23 nM, respectively.

B7: BCY18659 (peptide)
peptide: Ac-CNDVLCSWA[hArg]ANSFC
modifications: linker 1-6-15 via TATA
notes: as for B1
For the molecule B7, the binding result in test [5] is on record as “no binding”.

B8: BCY18783 (peptide)
peptide: Ac-CNEVLCSWA[hArg]ANSFC
modifications: linker 1-6-15 via TATA
notes: as for B1
In the case of B8, in test [5], the binding result is listed as “no binding”.

B9: BCY18550 (peptide)
peptide: Ac-CNTVLCGWARANSLCK(PYA)
modifications: linker 1-6-15 via TATA
notes: as for B1
Turning to B9, the values for the Kd in test [3] and in test [4] were 15.6 nM and 9.7 nM, respectively.

As usually defined, the Kd is a measure of binding affinity in units of concentration. A higher Kd goes with a looser complex.
